Test results from US8741840B2, “BMP-7 for use in treating neointimal hyperplasia” (Washington University, priority 2008, dated 2014).
Where “and” joins values, the source holds several entries; their conditions need not be identical. Equal entries are not always repeated.

What was measured:
[1] = Blood tests: serum biochemical parameters in the various groups of animals; assay type: in vivo, mouse
Protocol: Animals were sacrificed under anesthesia 28 weeks post natal. At the time of sacrifice, blood was taken by intracardiac stab, and the heart and aorta dissected en bloc. The BMP-7 treated group received intraperitoneal injection of BMP-7 10 μg/kg dry weight once weekly in 100 μl vehicle [mannitol (5% w/v), NaAcetate buffer (20 mM, pH 4.0-4.5), sterile water].
Animals were allocated to one of seven CKD high fat fed groups after the second surgery: Other control Groups included LDLR−/− sham operated mice on chow diet, and LDLR−/− mice with CKD on chow diet. C57B16 WT mice fed chow served as the normal benchmark source. […] Group 1 were LDLR−/− mice on the high fat diet sacrificed at 22 weeks. Group 2 were LDLR−/− mice with CKD fed the high fat diet and treated weekly from 22 to 28 weeks with vehicle IP. […] Group 3 was the first treatment group. These were LDLR−/− mice with CKD on high fat diet that received BMP-7 treatment (10 μg/kg IP weekly). Group 4 were LDLR−/− mice with CKD on high fat diet treated with sevelamer CO3 1%. Group 5 were LDLR−/− mice with CKD on high fat diet treated with sevelamer CO3 3%. […] Once the mice were randomized into groups, they were allowed to develop calcification from weeks 14 through weeks 22 post natal. Therapy was initiated at 23 weeks postnatal and continued until week 28 postnatal at which time the mice were examined.
Blood tests: Serum was analyzed on the day of blood draw for blood urea nitrogen [BUN], cholesterol, calcium and phosphate by standard laboratory methods. Before initiation of therapy, blood was obtained through saphenous vein. At the time of sacrifice, blood was obtained through intracardiac stab.

[2] = system: human vascular smooth muscle cells (hVSMC) isolated from atherosclerotic donors; assay: Phosphorus stimulated matrix mineralization (matrix Ca content) in hVSMC cultures; assay type: cell-based; set-up: Matrix Ca content, Effects of 10 ng/ml BMP-7: unit not given here
Protocol: (§1) Cell Culture: Human adult aorta were obtained from seven cadaveric organ donors rejected because of atherosclerosis by Mid-America Transplant Services (St. Louis, Mo.) and enzymatically digested to obtain Human Smooth Muscle Cells (HSMC). Medial tissue was separated from the adventia and intima and digested with collagenase type I (Worthington, Lakewood, N.J.) 2 mg/ml for 1 hr, and washed with Hank's balanced salt solution (HBSS). Further digestion followed with collagenase type II 1 mg/ml (Worthington, Lakewood, N.J.) and elastase 0.25 mg/ml (Worthington, Lakewood, N.J.) for 4 hrs. Cell suspensions were washed twice with HBSS and cultured in T-75 flasks for three weeks in a 95%/5% air/CO2 humidified environment at 37° C. The growth medium used was DMEM containing […] glucose (high glucose), 10% fetal bovine serum (FBS, Atlas, Fort Collins, Colo.), 1 mM sodium pyruvate, 100 units/ml Penicillin and […] Streptomycin (Sigma, St Louis, Mo.). Cell purity was assessed by positive immunostaining for α-smooth muscle actin and calponin and for the absence of von Willebrand factor. In all experimental protocols, cells were seeded at 1×10^5 cells/well in six-well plates. Medium was changed on the first day and every third day thereafter. In all cases, cells used were between passages two and five (Table 3).
Induction of Calcification: At the time of confluence, cells were switched to mineralization medium consisting of DMEM supplemented with 1 or 2 mM Pi. For cells exposed to BMP-7 treatment, fresh mineralization medium containing either vehicle (mannitol, acetic acid, acetate) or BMP-7 in vehicle was added at 0.1, 1.0, 10, or 100 ng/ml. The medium was changed every two or three days. […] Calcium content was quantified and normalized to cellular protein as described. (Jono 2000; Moe S. M. et al., Kidney Int 67:2295-2304, 2005)^11;52
In vitro matrix mineralization. […]

hVSMC = assay: RT-PCR of osteoblastic differentiation program genes in hVSMC; assay type: cell-based, human
Protocol: as §1
RT-PCR: RNA was extracted from cell cultures using RNeasy Mini Kits (Qiagen, Valencia, Calif.). Semi-quantitative RT-PCR was conducted using Roche 1st Strand cDNA Synthesis Kit (Indianapolis, Ind.) and PCR kit from Invitrogen (Grand Island, N.Y.) according to manufacturer's instructions using a two-step method. 1 μg of total RNA was reverse transcribed and random primers were added for 60 min at 42° C., prior to PCR. Forward and Reverse primers (Table 4) were added and the reactions subjected to PCR for 20-35 cycles. The number of cycles necessary to amplify cDNA but remain within the exponential amplification range was determined for each primer set. GAPDH was used as internal standard to assess loading. Genomic contamination was assessed by heat inactivation of the reverse transcriptase prior to RT-PCR. Primers were designed using Vector NTI soft ware (Invitrogen, Grand Island, N.Y.) and optimal conditions for each prime pairs were determined (Table 4). A Perkin-Elmer DNA Thermal Cycler was used to perform the reaction. Products were separated on a 2% agarose E-gel (Invitrogen, Grand Island, N.Y.), and visualized with ethidium bromide. The band intensity was analyzed first by scanning the gel on a Typhoon 9410 gel imager (Amersham Biosciences), quantified by using TotalLab software v2003.03 (Nonlinear Dynamics, Durham, N.C.) and normalized for loading by comparison to GAPGH. Negative controls were performed by inactivating the reverse transcriptase by boiling for 5 min prior to RT-PCR to insure that genomic DNA was not amplified.
Stimulation of osteoblastic differentiation through osterix induction. […] Osterix (E) was only weakly expressed in basal culture conditions. Phosphorus stimulated transcription of osterix (E). […] The data in A-E were normalized to the expression level in basal culture conditions and expressed as fold induction, mean±SEM, n=3. In: Principles of Bone Biology, edited by Bilezikian J P et al., New York, Academic Press, 1996, pp 51-67; Hoffmann H M et al., Proc. Nat. […]

[3] = system: LDLR−/− mice with CKD on high fat diet; settings: LDLR-/- mice with CKD fed high fat diets; previous studies (Davies 2003; Davies 2005); cited from earlier work

B1: BMP-7: bone morphogenetic protein-7 (osteogenic protein-1), mineralization-countering morphogen; provided by Johnson and Johnson (protein, listed as Homo sapiens)
chain: STGSKQRSQNRSKTPKNQEALRMANVAENSSSDQRQACKKHELYVSFRDLGWQDWIIAPEGYAAYYCEGECAFPLNSYMNATNHAIVQTLVHFINPETVPKPCCAPTQLNAISVLYFDDSSNVILKKYRNMVVRACGCH
[1]; CKD high fat fed LDLR-/- mice, treated weeks 22-28 (FIG. 1B, Table 5)
  serum phosphorus / hyperphosphatemia: reduced to normal levels
[1]; serum, LDLR-/-, fat diet, CKD, 28 weeks post natal, BMP-7 10 μg/kg IP weekly or binder 3% in diet
  Phosphorus: 6.325 ± .471 mg/dL
[2]; BMP-7 0.1, 1 and 10 ng/ml, 14 or 21 days in high phosphorus media (FIG. 4)
  mineralization of the ECM: decreased mineralization of the ECM
[2]; hVSMC from atherosclerotic aortas, one donor (donors 1-7, passage 2-3), 10 ng/ml BMP-7 in high phosphorus (2 mM PO4) media
  Matrix Ca content, Effects of 10 ng/ml BMP-7: 18 and 17.9 and 25.8 and 19.8 and 22.1 and 20.3 and 20.6
hVSMC; 2 mM phosphorus plus 10 ng/ml BMP-7 (FIG. 5A)
  osteocalcin expression: inhibited osterix and osteocalcin expression
hVSMC; 2 mM phosphorus plus 10 ng/ml BMP-7 (FIG. 5B)
  BMP-2 expression: failed to affect expression
hVSMC; 2 mM phosphorus plus 10 ng/ml BMP-7 (FIG. 5D)
  RUNX2 expression: failed to affect expression
hVSMC; 2 mM phosphorus plus 10 ng/ml BMP-7 (FIG. 5E)
  osterix expression: strongly inhibited osterix expression
[3]
  development of aortic calcification (prevention studies): prevented the development of aortic calcification
